Source: patent US20210145976A1

B1: SEQ ID NO 280 (designed binder)
chain: MLPAPKNLVVRXVTEDSARLSWTAPDAAFDSFEIEYDEPYRGGEAIVLTVPGSERSYDLTSLKPGTEYPVSIGGVKGGITSDPLSAIFTT
modifications: X: residue not identified in the source; also: C-terminal poly-His tag, letters not given here
B2: SEQ ID NO 302 (designed binder)
chain: MLPAPKNLVVSRVTEDSARLSWTAPDAAFDSFDIYYPEYYDRGEAIVLTVPGSERSYDLTGLKPGTEYTVYIDGVKGGGGSGPLSAIFTT
B3: SEQ ID NO 305 (designed binder)
chain: MLPAPKNLVVSRVTEDSARLSWTAPDAAFDSFEIDYDEPFVYGEAIVLTVPGSERSYDLTGLKPGTEYRVFIFGVKGGNGSWPLSAIFTT
B4: SEQ ID NO 82 (designed binder)
chain: MLPAPKNLVVSRVTEDSARLSWTAPDAAFDSFAIAYVEWWKLGEAIVLTVPGSERSYDLTGLKPGTEYVVPIPGVKGGGHSSPLSAIFTT
B5: SEQ ID NO 308 (designed binder)
chain: MLPAPKNLVVSEVTEDSARLSWQGVARAFDSFLITYREQIFAGEVIVLTVPGSERSYDLTGLKPGTEYPVWIQGVKGGSPSAPLSAISTT
B6: SEQ ID NO 303 (designed binder)
chain: MLPAPKNLVVSRVTEDSARLSWTAPDAAFDSFFIAYFEFANPGEAIVLTVPGSERSYDLTGLKPGTEYKVVIQGVKGGTPSEPLSAIFTT
B7: SEQ ID NO 34 (designed binder)
chain: MLPAPKNLVVSRVTEDSARLSWTAPDAAFDSFAITYIEWWDVGEAIGLKVPGSERSYDLTGLKPGTEYRVHIQGVKGGNNSYPLDALFTT
B8: SEQ ID NO 81 (designed binder)
chain: MLPAPKNLVVSRVTEDSARLSWTAPDAAFDSFVIEYREGAWYGEAIVLTVPGSERSYDLTGLKPGTEYAVYIPGVKGGPRSFPLSAIFTT
B9: SEQ ID NO 301 (designed binder)
chain: MLPAPKNLVVSRVTEDSARLSWTAPDAAFDSFEIEYDEPYRGGEAIVLTVPGSERSYDLTSLKPGTEYPVSIGGVKGGITSDPLSAIFTT
B10: SEQ ID NO 57 (designed binder)
chain: MLPAPKNLVVSRVTEDSARLSWTAPDAAFDSFSIKYLEWWQDGEAIVLTVPGSERSYDLTGLKPGTEYYVHIAGVKGGYRSYPLSAIFTT
B11: SEQ ID NO 309 (designed binder)
chain: MLPAPKNLVVSRVTEDSARLSWTAPDAAFDSFIIDYLELDQEGEAIVLTVPGSERSYDLTGLKPGTEYAVYIFGVKGGYPSTPLSAIFTT
B12: SEQ ID NO 61 (designed binder)
chain: MLPAPKNLVVSRVTEDSARLSWRVESRTFDSFLIQYQESEKVGEAIVLTVPGSERSYDLTGLKPGTEYTVSIYGVVWDTRDNPISNPLSAIFTT
B13: SEQ ID NO 60 (designed binder)
chain: MLPAPKNLVVSRVTEDSARLSWTAPDAAFDSFTIWYAEAIGHGEAIVLTVPGSERSYDLTGLKPGTEYWVDIWGVKGGQQSKPLSAIFTT
B14: SEQ ID NO 307 (designed binder)
chain: MLPAPKNLVVSRVTEDSARLSWTAPDAAFDSFPITYSEPAHYGEAIVLTVPGSERSYDLTGLKPGTEYHVGIMGVKGGVFSSPLSAIFTT
B15: SEQ ID NO 306 (designed binder)
chain: MLPAPKNLVVSRVTEDSARLSWTAPDAAFDSFYIEYFETQGYGEAIVLTVPGSERSYDLTGLKPGTEYYVAIYGVKGGYLSRPLSAIFTT

The binders below were run against T1, recombinant biotinylated CD71 extracellular domain (Sino Biologics) with an N-terminal 6His tag (human), P02786 (assay: screening ELISA).
T1 sequence (P02786 other isoform, or with tags, fused parts or gaps): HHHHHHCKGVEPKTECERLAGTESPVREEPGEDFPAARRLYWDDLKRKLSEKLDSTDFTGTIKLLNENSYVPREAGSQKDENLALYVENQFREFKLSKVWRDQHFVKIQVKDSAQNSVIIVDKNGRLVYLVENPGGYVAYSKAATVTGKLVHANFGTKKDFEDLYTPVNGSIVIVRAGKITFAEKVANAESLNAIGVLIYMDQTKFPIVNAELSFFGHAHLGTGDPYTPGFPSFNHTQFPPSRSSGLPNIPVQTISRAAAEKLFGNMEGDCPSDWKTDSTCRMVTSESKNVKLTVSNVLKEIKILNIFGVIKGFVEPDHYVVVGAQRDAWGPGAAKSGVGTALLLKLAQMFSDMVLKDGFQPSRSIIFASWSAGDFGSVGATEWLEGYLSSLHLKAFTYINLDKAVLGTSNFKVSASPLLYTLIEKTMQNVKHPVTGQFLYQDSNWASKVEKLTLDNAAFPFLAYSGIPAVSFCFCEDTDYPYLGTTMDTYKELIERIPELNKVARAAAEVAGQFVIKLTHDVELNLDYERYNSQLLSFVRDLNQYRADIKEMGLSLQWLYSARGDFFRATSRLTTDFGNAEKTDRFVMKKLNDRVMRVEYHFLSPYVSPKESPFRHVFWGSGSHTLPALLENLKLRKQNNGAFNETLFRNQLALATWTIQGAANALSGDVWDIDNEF
B1 showed a hCD71 of 446000.

These binders were tested against T1, recombinant biotinylated CD71 … (assay: screening ELISA, ratio).
With B1 the hCD71:HSA was 21.

Each binder was assayed against human serum albumin (human) (UniProt P02768) (assay: screening ELISA).
Sequence of human serum albumin (human) (P02768 25-609 limits assumed): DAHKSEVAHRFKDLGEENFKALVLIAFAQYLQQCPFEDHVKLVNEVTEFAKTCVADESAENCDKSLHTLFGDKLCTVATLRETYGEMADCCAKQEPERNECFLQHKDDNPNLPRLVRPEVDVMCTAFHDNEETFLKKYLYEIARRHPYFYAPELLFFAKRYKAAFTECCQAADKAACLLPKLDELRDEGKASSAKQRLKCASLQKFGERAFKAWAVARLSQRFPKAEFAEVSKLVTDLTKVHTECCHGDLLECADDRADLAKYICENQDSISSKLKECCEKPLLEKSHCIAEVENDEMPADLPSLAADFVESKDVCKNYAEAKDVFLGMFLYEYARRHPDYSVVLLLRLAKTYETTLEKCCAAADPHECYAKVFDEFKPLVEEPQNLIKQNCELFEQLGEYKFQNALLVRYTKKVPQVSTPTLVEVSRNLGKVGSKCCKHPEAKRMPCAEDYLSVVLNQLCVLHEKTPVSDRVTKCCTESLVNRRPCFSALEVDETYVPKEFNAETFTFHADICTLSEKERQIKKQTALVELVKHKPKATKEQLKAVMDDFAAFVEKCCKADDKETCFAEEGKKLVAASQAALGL
B2 was tested, and the HSA was 21200. B3 gave an HSA of 25000. B4 gave an HSA of 18900. B5 showed an HSA of 12300. Work on B6 yielded an HSA of 2650. Binder B7 has an HSA of 25900. With B8 the HSA was 28600. For B9, the HSA was 12000. With B10 the HSA was 16900. With B11 the HSA was 2850. Work on B12 yielded an HSA of 10600. With B13 the HSA was 6480. Work on B14 yielded an HSA of 4350. B15 was tested, and the HSA was 2250.
